Laboratory results from US20200165344A1 (DRAGONFLY THERAPEUTICS, published 2020).

T1: recombinant cynomolgus NKG2D-Fc (cynomolgus; human, UniProt P61252 73-216)
T1 construct: extracellular domain; also called cynomolgus NKG2D-Fc fusion protein; not shown: human IgG1 Fc domain
T1 sequence (looked up): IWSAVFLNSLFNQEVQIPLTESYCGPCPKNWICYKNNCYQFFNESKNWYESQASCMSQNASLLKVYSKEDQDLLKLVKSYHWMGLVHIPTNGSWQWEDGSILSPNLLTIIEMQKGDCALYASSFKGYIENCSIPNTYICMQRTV

T2: recombinant mouse NKG2D-Fc (mouse; human, UniProt O54709 90-232)
T2 construct: extracellular domain; also called mouse NKG2D-Fc fusion protein; Mouse NKG2D-Fc-biotin; not shown: human IgG1 Fc domain
T2 sequence (looked up): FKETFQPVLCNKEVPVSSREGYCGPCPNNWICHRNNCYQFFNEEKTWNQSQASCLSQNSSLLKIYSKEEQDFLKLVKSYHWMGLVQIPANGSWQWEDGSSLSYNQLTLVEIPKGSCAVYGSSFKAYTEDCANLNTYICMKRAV

T3: recombinant human NKG2D-Fc (human, UniProt P26718 73-216)
T3 construct: extracellular domain; also called human NKG2D-Fc fusion protein; NKG2D-Fc-biotin; not shown: human IgG1 Fc domain
T3 sequence (looked up): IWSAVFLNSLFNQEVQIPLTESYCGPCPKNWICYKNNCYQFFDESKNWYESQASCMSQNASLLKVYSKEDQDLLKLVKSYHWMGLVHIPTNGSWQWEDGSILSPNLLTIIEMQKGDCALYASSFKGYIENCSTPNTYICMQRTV


Key:
[1] = molecular target: T1, recombinant cynomolgus NKG2D-Fc; assay: ELISA, NKG2D-Fc coated
[2] = molecular target: T2, recombinant mouse NKG2D-Fc; assay: ELISA, NKG2D-Fc coated
[3] = molecular target: T3, recombinant human NKG2D-Fc; assay: ELISA, NKG2D-Fc coated
[4] = molecular target: T4, FLT3 expressed on human AML cell lines Molm-13 and EOL-1 (human, UniProt P36888 27-993); assay: flow cytometry on Molm-13 and EOL-1 cells
T4 construct: the FLT3 in the assay is that carried by the cell lines themselves; also called FMS-like tyrosine kinase-3
Method: Human AML cell lines (Molm-13 and EOL-1) expressing FLT3 were used to assay the binding of FLT3-targeting TriNKETs to the tumor-associated antigen. TriNKETs were incubated with the cells, and the binding was detected using fluorophore-conjugated anti-human IgG secondary antibodies. Cells were analyzed by flow cytometry and mean fluorescence intensity (MFI) was normalized to secondary antibody controls to obtain fold over background (FOB) values.

Binder | binding result [1] | binding result [2] | binding result [3] | binding result [4]
ADI-29378 (antibody, V domains shown, also called E78) VH: QVQLVQSGAEVKKPGASVKVSCKASGYTFTSYYMHWVRQAPGQGLEWMGIINPSGGSTSYAQKFQGRVTMTRDTSTSTVYMELSSLRSEDTAVYYCAREGAGFAYGMDYYYMDVWGKGTTVTVSS VL: EIVLTQSPATLSLSPGERATLSCRASQSVSSYLAWYQQKPGQAPRLLIYDASNRATGIPARFSGSGSGTDFTLTISSLEPEDFAVYYCQQSDNWPFTFGGGTKVEIK | binds | binds | binds | 
A49-TriNKET-FLT3-IMCEB10 (bispecific antibody, V domains shown, also called A49-TriNKET-IMCEB10) VH 1: EVQLVESGGGLVKPGGSLRLSCAASGFTFSSYSMNWVRQAPGKGLEWVSSISSSSSYIYYADSVKGRFTISRDNAKNSLYLQMNSLRAEDTAVYYCARGAPMGAAAGWFDPWGQGTLVTVSS VL 1: DIQMTQSPSSVSASVGDRVTITCRASQGISSWLAWYQQKPGKAPKLLIYAASSLQSGVPSRFSGSGSGTDFTLTISSLQPEDFATYYCQQGVSFPRTFGGGTKVEIK VH 2: EVQLVQSGAEVKKPGASVKVSCKASGYTFTSYYMHWVRQAPGQGLEWMGIINPSGGSTSYAQKFQGRVTMTRDTSTSTVYMELSSLRSEDTAVYYCARGVGAHDAFDIWGQGTTVTVSSA VL 2: DVVMTQSPLSLPVTPGEPASISCRSSQSLLHSNGNNYLDWYLQKPGQSPQLLIYLGSNRASGVPDRFSGSGSDTDFTLQISRVEAEDVGVYYCMQGTHPAISFGQGTRLEIKR |  |  |  | binds
A49-TriNKET-FLT3-4G8 (bispecific antibody, V domains shown, also called A49-TriNKET-4G8) VH 1: EVQLVESGGGLVKPGGSLRLSCAASGFTFSSYSMNWVRQAPGKGLEWVSSISSSSSYIYYADSVKGRFTISRDNAKNSLYLQMNSLRAEDTAVYYCARGAPMGAAAGWFDPWGQGTLVTVSS VL 1: DIQMTQSPSSVSASVGDRVTITCRASQGISSWLAWYQQKPGKAPKLLIYAASSLQSGVPSRFSGSGSGTDFTLTISSLQPEDFATYYCQQGVSFPRTFGGGTKVEIK VH 2: QVQLQQPGAELVKPGASLKLSCKSSGYTFTSYWMHWVRQRPGHGLEWIGEIDPSDSYKDYNQKFKDKATLTVDRSSNTAYMHLSSLTSDDSAVYYCARAITTTPFDFWGQGTTLTVSS VL 2: DIVLTQSPATLSVTPGDSVSLSCRASQSISNNLHWYQQKSHESPRLLIKYASQSISGIPSRFSGSGSGTDFTLSINSVETEDFGVYFCQQSNTWPYTFGGGTKLEIKR |  |  |  | binds

More lines, now with the values ahead:

binding result [1] | binding result [2] | binding result [3] | binding result [4] | Binder
 |  |  | binds | C26-TriNKET-FLT3-4G8 (bispecific antibody, V domains shown, also called C26-TriNKET-4G8) VH 1: QVQLQQWGAGLLKPSETLSLTCAVYGGSFSGYYWSWIRQPPGKGLEWIGEIDHSGSTNYNPSLKSRVTISVDTSKNQFSLKLSSVTAADTAVYYCARARGPWSFDPWGQGTLVTVSS VL 1: DIQMTQSPSTLSASVGDRVTITCRASQSISSWLAWYQQKPGKAPKLLIYKASSLESGVPSRFSGSGSGTEFTLTISSLQPDDFATYYCQQYGSFPITFGGGTKVEIK VH 2: QVQLQQPGAELVKPGASLKLSCKSSGYTFTSYWMHWVRQRPGHGLEWIGEIDPSDSYKDYNQKFKDKATLTVDRSSNTAYMHLSSLTSDDSAVYYCARAITTTPFDFWGQGTTLTVSS VL 2: DIVLTQSPATLSVTPGDSVSLSCRASQSISNNLHWYQQKSHESPRLLIKYASQSISGIPSRFSGSGSGTDFTLSINSVETEDFGVYFCQQSNTWPYTFGGGTKLEIKR
binds | binds | binds |  | ADI-27749 (antibody, V domains shown, also called A49) VH: EVQLVESGGGLVKPGGSLRLSCAASGFTFSSYSMNWVRQAPGKGLEWVSSISSSSSYIYYADSVKGRFTISRDNAKNSLYLQMNSLRAEDTAVYYCARGAPMGAAAGWFDPWGQGTLVTVSS VL: DIQMTQSPSSVSASVGDRVTITCRASQGISSWLAWYQQKPGKAPKLLIYAASSLQSGVPSRFSGSGSGTDFTLTISSLQPEDFATYYCQQGVSFPRTFGGGTKVEIK
